From article PMC4159317
Marks after values point to notes of the source that are not given here.

Legend:
Glu107 [1] = test: other (circular dichroism); settings: 25 °C; 50 mM NaCl; none stated; 30 µM protein in 50 mM NaCl titrated with 0.05-0.1 M HCl or NaOH; transition between the more structured form (MSF) and the less structured form (LSF) of the double mutant
Glu38 = test: NMR; settings: 25 °C, not stated for the titration samples, folded, more structured form (MSF), signals were lost above pH 6.4 because the population of the structured form is low there
Glu104 = test: NMR; settings: 25 °C, not stated for the titration samples, folded, more structured form (MSF), signals were lost above pH 6.4 because the population of the structured form is low there
Glu87 = test: NMR; settings: 25 °C, not stated for the titration samples, folded, more structured form (MSF), signals were lost above pH 6.4 because the population of the structured form is low there
Glu107 [2] = test: NMR; settings: 25 °C, not stated for the titration samples, folded, more structured form (MSF), signals were lost above pH 6.4 because the population of the structured form is low there
Glu83 = test: NMR; settings: 25 °C, not stated for the titration samples, folded, more structured form (MSF), signals were lost above pH 6.4 because the population of the structured form is low there
Glu28 = test: NMR; settings: 25 °C, not stated for the titration samples, folded, more structured form (MSF), signals were lost above pH 6.4 because the population of the structured form is low there
Glu63 = test: NMR; settings: 25 °C, not stated for the titration samples, folded, more structured form (MSF), signals were lost above pH 6.4 because the population of the structured form is low there
Glu105 = test: NMR; settings: 25 °C, not stated for the titration samples, folded, more structured form (MSF), signals were lost above pH 6.4 because the population of the structured form is low there
Glu68 = test: NMR; settings: 25 °C, not stated for the titration samples, folded, more structured form (MSF), signals were lost above pH 6.4 because the population of the structured form is low there

Substance	pKa (Glu107 [1])	pKa (Glu38)	pKa (Glu104)	pKa (Glu87)	pKa (Glu107 [2])	pKa (Glu83)	pKa (Glu28)	pKa (Glu63)	pKa (Glu105)	pKa (Glu68)
DraK histidine kinase, extracellular sensor domain (ESD), E83L/E105L double mutant (Streptomyces coelicolor A3(2); E83L;E105L)	8.1*									
DraK histidine kinase, extracellular sensor domain (ESD), wild type (Streptomyces coelicolor A3(2))		4.3	4.6	3.7	above 6.4	5.3	3.9	4.5	5.5	4.5
